Drawing on patent CN114702585A (SHENZHEN BINDEBIO TECH CO LTD, dated 2022), this text covers Kd for 1 molecule.

In general, Kd refers to the constant that tells how readily two partners part at equilibrium.

The experiment deals with T1, CD22蛋白 (购自义翘神州) (UniProt P20273 20-687).
T1 construct: Bought recombinant protein; also called CD22蛋白抗原
T1 sequence (looked up): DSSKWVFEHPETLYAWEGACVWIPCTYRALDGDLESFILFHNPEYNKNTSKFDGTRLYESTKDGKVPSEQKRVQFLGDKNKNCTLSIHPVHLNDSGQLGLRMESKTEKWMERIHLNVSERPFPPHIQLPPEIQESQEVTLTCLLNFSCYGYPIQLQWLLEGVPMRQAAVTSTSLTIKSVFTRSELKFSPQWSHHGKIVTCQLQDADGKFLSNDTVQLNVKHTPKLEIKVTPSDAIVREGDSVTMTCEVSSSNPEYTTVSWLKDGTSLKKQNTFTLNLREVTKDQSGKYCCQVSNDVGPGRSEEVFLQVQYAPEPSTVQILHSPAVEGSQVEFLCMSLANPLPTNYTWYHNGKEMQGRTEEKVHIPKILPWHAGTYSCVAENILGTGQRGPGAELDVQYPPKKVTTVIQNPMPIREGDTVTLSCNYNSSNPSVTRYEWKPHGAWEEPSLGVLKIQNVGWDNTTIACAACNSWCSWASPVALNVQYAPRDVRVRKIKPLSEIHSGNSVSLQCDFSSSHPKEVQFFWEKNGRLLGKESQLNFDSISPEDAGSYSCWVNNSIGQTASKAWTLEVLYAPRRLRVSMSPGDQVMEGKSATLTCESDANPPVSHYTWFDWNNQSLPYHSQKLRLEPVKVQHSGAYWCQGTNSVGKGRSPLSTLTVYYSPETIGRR
The experiment in a line: BLI (OCTET K2), CD22 protein loaded on AHC sensor, 4F6 in solution 500-5.21 nM.

B1: 抗CD22的单克隆抗体4F6 (antibody, V domains shown)
VH: EVLLQQSGPELVKPGASVKIPCKASGYTFTDYNMDWVKQSHGKSLEWIGDIDPNNGITIYNQKFKGKATLTIDKSSSTAYMELRSLTSEDTAVYYCARDRYDRGYALDYWGQGTSVTVSS
VL: DIVMTQSPSSLAMSVGQKVTMSCKSSQSLLNSSNQKNYLAWHQQKTGQSPKLLVYFASIRDSGVPDRFIGSGSGTDFTLTINSVQAEDLADYFCQQHYSTPFTFGSGTKLEIK
notes: also called 4F6抗体; CD22单克隆抗体
In the case of B1, the Kd was 3.14 nM.
